According to paper PMC7326016, “Structural Studies of Glutamate Dehydrogenase (Isoform 1) From Arabidopsis thaliana, an Important Enzyme at the Branch-Point Between Carbon and Nitrogen Metabolism” (Frontiers in Plant Science, 2020):

Target: the molecule itself
Test: crystal structure; two crystal structures of AtGDH1 (apo, 2.59 Å; complex with NAD+, 2.03 Å; 2OG in one subunit of the latter); one homohexamer in the asymmetric unit, space group P212121; inter-subunit contacts analysed with PISA

B1: Glutamate dehydrogenase 1 from Arabidopsis thaliana (AtGDH1), homohexamer of α subunits (enzyme, A. thaliana, UniProt Q43314 1-411, looked up)
chain: MNALAATNRNFKLAARLLGLDSKLEKSLLIPFREIKVECTIPKDDGTLASFVGFRVQHDNARGPMKGGIRYHPEVDPDEVNALAQLMTWKTAVAKIPYGGAKGGIGCDPSKLSISELERLTRVFTQKIHDLIGIHTDVPAPDMGTGPQTMAWILDEYSKFHGYSPAVVTGKPIDLGGSLGRDAATGRGVMFGTEALLNEHGKTISGQRFVIQGFGNVGSWAAKLISEKGGKIVAVSDITGAIKNKDGIDIPALLKHTKEHRGVKGFDGADPIDPNSILVEDCDILVPAALGGVINRENANEIKAKFIIEAANHPTDPDADEILSKKGVVILPDIYANSGGVTVSYFEWVQNIQGFMWEEEKVNDELKTYMTRSFKDLKEMCKTHSCDLRMGAFTLGVNRVAQATILRGWGA
notes: Glutamate dehydrogenase 1 (AtGDH1, α subunit), Arabidopsis thaliana ecotype Col-0, locus At5g18170.1, UniProt Q43314; Cloned into pMCSG68; the His tag was cut off with TEV protease; also called glutamate dehydrogenase (isoform 1); source: E. coli BL21-Gold (DE3), purified (HisTrap, TEV cleavage, second HisTrap, Superdex 200 SEC)
stoichiometry N: 6
